Laboratory results published in the supplement of paper PMC12667976.

B1: library; numbered along this chain (parent)
chain: MATDAALRRLLRLHRTEIAVAVDSAFPLLHALADHDVVPEDKFQETLHLKEKEGCPQAFHALLSWLLTQDSTAILDFWRVLFKDYNLERYGRLQPILDSFPKDVDLSQPRKGRKPPAVPKALVPPPRLPTKRKASEEARAAAPAALTPRGTASPGSQLKAKPPKKPESSAEQQRLPLGNGIQTMSASVQRAVAMSSGDVPGARGAVEGILIQQVFESGGSKKCIQVGGEFYTPSKFEDSGSGKNKARSSSGPKPLVRAKGAQGAAPGGGEARLGQQGSVPAPLALPSDPQLHQKNEDECAVCRDGGELICCDGCPRAFHLACLSPPLREIPSGTWRCSSCLQATVQEVQPRAEEPRPQEPPVETPLPPGLRSAGEEVRGPPGEPLAGMDTTLVYKHLPAPPSAAPLPGLDSSALHPLLCVGPEGQQNLAPGARCGVCGDGTDVLRCTHCAAAFHWRCHFPAGTSRPGTGLRCRSCSGDVTPAPVEGVLAPSPARLAPGPAKDDTASHEPALHRDDLESLLSEHTFDGILQWAIQSMARPAAPFPS

Variants of: B1
Assay: AIRE transcriptional activation functional score (insulin promoter-GFP; nonsense median 0, synonymous median 1) (normalised score); higher = higher AIRE activity (more reporter activation)
Settings: with insulin promoter-GFP reporter in HEK293
Protocol: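 Deep mutational scan of full-length human AIRE (codon-optimized cDNA, DT-POPCode NNN libraries over three regions) integrated at a Bxb1 landing pad in HEK293 cells carrying an insulin core promoter-GFP reporter at a Flp-In site. Cells were sorted for the top 10% GFP about 14 days after transfection. Variant frequency log-ratios (select vs non-select, TileSeq) were rescaled so that the nonsense median is 0 and the synonymous median is 1, then averaged over biological replicates.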

AIRE transcriptional activation functional score: each site, then its substitutions
G155: H 1.71, V 0.534, F 1.61, T 0.66, P -0.203, D 0.338, K 0.662, L 0.509, R 1.01, M 2.34, E 0.777
L146: V 0.912, D 1.73, T 1.09, C 0.639, Y 1.24, A 0.454, H 0.618, S 1.03, I 0.888, P 0.73, R 0.262, M 0.496, N 0.353, Q 1.05, K 0.924, F 0.9, G 0.344, W 1.42, E 0.882
A142: T 0.704, D 1.05, N 0.413, W 1.28, C 1.03, F 1.16, V 1.27, M 0.975, H 0.486, Y 1.14, P 0.882, L 1.17, S 0.968, Q -0.0872, E 1.17, I 0.926, R 0.685, G 1.29, K 0.314
S153: F 1.67, C 1.2, A 0.85, R 0.588, I 1.03, K 0.285, W 1.4, M 1.09, N 0.697, H 1.41, Q 0.582, T 0.818, E 1.14, Y 0.691, P 1.7, L 1.16, G 1.21, D 0.728, V 0.888
G150: V 0.822, I 1.08, A -0.308, P 0.879, T 0.661, W 2.25, L 1.3, M 0.246, E 0.763, H 1.19, F 1.34, S 1.63, N 0.149, Y 2.21, D -0.34, K 1.53, R 0.148, C 1.38
A141: T 0.967, V 1, Y 1.66, S 1.01, W 1.18
P143: M 1.02, F 1.28, T 1.49, E 1.5, R 0.548, W 1.15, G 0.958, Y 1.39, S 0.96, K 0.307, D 1.01, A 1.18, V 0.964, L 1.11, I 0.862, Q 1.33, N 1.32, H 1.09, C 0.956
T151: K 0.845, M 0.378, W 1.97, P 1.01, R 0.807, C 0.915, V 1.5, Y 1.44, S 1.01, E 1.13, D 1.27, A 1.37, I 1.3, Q 1.28, N 0.966, H 1.34, F 1.76, G 1.36, L 0.905
A145: R 0.804, Q 1.12, K 0.907, F 1.23, M 0.474, T 1.21, C 1.07, G 1.29, E 0.0573, Y 1.66, S 1.4, L 1.19, D 0.593, I 0.806, N 0.349, W 2.05, V 0.722, P 0.887, H 1.37
P154: V 0.461, T 1.35, F 1.89, Q -0.0735, H 0.26, I 1.59, G 0.75, Y 1.68, D 0.0296, R 0.579, N 0.642, C 0.692, K -1.06, A 0.676, S 0.685, L 1.36, M -0.062, E 0.475, W 1.13
